Test results as given in US20160331662A1, “Compositions that Inhibit and Prevent the Formation of Dental Caries and Methods of Using the Same” (priority 2014, published 2016).
No end group written: not given here. FAM = fluorescein amidite

T1: A3VP1^AgI/II (Streptococcus mutans UA159), P23504
T1 chain: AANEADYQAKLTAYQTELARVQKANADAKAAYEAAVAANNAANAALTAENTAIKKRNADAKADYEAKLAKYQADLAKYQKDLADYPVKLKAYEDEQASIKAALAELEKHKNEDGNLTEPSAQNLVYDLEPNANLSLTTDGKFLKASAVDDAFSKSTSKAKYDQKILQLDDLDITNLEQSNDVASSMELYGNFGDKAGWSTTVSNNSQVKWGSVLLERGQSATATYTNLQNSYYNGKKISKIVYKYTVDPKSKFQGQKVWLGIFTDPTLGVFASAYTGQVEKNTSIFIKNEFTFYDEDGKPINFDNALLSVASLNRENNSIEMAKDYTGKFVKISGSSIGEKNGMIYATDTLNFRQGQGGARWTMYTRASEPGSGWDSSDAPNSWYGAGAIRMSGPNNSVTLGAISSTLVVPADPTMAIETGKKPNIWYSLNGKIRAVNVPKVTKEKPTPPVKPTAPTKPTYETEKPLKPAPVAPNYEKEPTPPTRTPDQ

T2: C123^AgI/II (Streptococcus mutans UA159), P23504
T2 chain: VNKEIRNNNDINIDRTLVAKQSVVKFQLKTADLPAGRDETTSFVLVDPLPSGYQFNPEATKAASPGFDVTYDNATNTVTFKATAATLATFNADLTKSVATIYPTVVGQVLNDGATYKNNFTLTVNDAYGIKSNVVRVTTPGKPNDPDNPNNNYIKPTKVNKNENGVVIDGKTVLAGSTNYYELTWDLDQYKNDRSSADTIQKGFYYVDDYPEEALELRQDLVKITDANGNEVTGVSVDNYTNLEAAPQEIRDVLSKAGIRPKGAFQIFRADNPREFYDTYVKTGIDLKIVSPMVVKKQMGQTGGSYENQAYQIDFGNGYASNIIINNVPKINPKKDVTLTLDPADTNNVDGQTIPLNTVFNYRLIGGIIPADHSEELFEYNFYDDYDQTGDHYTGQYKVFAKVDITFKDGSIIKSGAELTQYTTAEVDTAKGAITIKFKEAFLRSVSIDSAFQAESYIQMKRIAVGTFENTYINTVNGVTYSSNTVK

T3: FL^AgI/II (S. mutans UA159 Antigen I/II, full length recombinant construct) (Streptococcus mutans UA159), P23504
T3 chain: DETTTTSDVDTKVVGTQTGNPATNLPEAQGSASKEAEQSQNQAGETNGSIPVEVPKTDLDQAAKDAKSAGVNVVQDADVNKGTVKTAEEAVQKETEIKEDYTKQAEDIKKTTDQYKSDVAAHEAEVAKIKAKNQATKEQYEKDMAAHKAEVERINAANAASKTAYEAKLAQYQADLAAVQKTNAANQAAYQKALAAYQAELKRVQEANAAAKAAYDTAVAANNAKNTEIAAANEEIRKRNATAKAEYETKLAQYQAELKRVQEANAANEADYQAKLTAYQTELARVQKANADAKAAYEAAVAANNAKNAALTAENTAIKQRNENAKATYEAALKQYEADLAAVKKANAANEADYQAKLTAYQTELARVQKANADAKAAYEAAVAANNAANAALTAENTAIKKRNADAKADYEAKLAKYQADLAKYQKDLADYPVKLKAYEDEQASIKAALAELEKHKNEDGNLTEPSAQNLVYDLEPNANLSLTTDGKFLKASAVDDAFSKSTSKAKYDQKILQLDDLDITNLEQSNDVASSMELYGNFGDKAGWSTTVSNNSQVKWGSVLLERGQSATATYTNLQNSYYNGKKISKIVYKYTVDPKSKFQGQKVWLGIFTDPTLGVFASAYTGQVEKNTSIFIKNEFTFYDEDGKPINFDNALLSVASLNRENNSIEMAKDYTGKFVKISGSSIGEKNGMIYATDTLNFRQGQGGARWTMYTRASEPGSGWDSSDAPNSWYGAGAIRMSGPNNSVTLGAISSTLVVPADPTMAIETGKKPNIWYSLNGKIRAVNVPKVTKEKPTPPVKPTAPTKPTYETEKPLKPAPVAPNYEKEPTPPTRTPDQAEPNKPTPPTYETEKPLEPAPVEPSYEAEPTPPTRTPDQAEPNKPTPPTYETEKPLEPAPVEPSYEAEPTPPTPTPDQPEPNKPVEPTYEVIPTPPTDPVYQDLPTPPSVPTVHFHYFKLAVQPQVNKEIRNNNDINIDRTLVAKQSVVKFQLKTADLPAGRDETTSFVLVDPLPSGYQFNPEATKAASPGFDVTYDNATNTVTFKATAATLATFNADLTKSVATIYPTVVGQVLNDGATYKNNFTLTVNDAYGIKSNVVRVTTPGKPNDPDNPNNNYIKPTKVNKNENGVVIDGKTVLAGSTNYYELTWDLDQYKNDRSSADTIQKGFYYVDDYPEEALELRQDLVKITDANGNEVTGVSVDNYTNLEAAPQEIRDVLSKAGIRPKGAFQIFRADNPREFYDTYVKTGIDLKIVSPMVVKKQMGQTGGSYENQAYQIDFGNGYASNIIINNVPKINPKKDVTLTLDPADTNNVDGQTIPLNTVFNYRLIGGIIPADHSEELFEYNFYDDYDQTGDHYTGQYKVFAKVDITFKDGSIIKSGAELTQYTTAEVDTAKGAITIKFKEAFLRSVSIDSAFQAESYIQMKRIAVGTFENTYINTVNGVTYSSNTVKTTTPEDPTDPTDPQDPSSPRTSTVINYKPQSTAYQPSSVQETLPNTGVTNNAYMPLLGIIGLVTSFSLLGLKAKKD

T4: FL^SspB (S. gordonii DL1 SspB, residues 39-1433) (Streptococcus gordonii DL1), P16952
T4 chain: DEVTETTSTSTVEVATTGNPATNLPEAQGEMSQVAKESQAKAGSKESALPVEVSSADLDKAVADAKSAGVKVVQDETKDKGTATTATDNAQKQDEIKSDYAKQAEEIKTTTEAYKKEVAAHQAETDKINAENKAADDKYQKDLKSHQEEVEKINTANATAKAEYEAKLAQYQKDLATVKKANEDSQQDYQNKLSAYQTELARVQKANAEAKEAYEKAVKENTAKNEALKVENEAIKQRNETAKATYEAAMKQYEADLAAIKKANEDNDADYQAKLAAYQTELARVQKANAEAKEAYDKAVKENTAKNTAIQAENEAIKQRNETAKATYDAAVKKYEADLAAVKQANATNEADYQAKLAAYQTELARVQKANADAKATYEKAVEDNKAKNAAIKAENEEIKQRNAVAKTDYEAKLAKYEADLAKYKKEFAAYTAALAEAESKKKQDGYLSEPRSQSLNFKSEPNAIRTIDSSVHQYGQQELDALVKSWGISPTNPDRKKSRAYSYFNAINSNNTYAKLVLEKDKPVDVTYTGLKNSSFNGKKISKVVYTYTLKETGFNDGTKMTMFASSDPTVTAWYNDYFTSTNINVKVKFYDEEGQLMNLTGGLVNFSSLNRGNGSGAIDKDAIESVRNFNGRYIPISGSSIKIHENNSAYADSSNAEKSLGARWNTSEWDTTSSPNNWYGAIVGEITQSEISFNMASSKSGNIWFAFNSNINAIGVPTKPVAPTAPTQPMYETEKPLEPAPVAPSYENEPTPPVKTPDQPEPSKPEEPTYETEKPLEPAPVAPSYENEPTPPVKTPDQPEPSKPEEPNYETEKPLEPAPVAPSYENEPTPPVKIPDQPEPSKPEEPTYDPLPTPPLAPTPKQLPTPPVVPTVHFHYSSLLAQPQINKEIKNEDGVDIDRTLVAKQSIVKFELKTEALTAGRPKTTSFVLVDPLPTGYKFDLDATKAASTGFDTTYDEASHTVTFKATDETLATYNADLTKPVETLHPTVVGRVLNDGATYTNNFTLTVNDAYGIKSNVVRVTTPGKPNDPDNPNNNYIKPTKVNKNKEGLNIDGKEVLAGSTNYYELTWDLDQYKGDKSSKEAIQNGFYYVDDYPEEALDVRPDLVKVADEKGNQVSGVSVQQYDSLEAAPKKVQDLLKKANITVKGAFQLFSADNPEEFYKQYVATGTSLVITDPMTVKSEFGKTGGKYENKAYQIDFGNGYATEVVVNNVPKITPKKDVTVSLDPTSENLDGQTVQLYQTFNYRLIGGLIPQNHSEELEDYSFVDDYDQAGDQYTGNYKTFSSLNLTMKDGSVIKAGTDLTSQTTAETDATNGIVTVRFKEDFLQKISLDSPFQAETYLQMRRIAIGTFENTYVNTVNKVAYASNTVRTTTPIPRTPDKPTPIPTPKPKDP

B1: SRCR peptide … (peptide)
peptide: ETNDANVVARQL
modifications: not checked
B2: SRCRP2 peptide with fluorescein amidite (FAM) at the carboxyl end (…-[FAM]) (peptide)
peptide: QGRVEVLYRGSWGTVCK-{FAM}

Columns and labels:
[1] = target: GbpC (S. mutans), glucan binding protein C (Streptococcus mutans); assay: SPR, peptide over immobilized GbpC
[2] = target: A3VP1^SspB (S. gordonii DL1 SspB, residues 386-805) (Streptococcus gordonii DL1) (UniProt P16952)
[3] = target: C123^SspB (S. gordonii DL1 SspB, residues 913-1406) (Streptococcus gordonii DL1) (UniProt P16952)
[4] = target: T1, A3VP1^AgI/II (Streptococcus mutans …)
[5] = target: T2, C123^AgI/II (Streptococcus mutans …)
[6] = target: T3, FL^AgI/II (S. mutans UA159 Antigen …)
[7] = target: T4, FL^SspB (S. gordonii DL1 SspB, residues …)
[8] = target: A3VP1^SspB (S. gordonii DL1 SspB, residues 386-805) (Streptococcus gordonii DL1) (UniProt P16952); assay: SPR; 2 µM A3VP1^SspB incubated with 0.005 mM peptide, over immobilized iSRCR1
[9] = target: T4, FL^SspB (S. gordonii DL1 SspB, residues …); assay: SPR; 2 µM FL^SspB incubated with 0.005 mM peptide, over immobilized iSRCR1
[10] = target: T3, FL^AgI/II (S. mutans UA159 Antigen …); assay: SPR; 2 µM FL^AgI/II incubated with 0.005 mM peptide, over immobilized iSRCR1
[11] = target: T1, A3VP1^AgI/II (Streptococcus mutans …); assay: SPR; 2 µM A3VP1^AgI/II incubated with 0.005 mM peptide, over immobilized iSRCR1

Binder	Ka [1] [M⁻¹]	Kd [1] [nM]	koff [1] [s⁻¹]	kon [1] [M⁻¹ s⁻¹]	% change of adherence to iSRCR123 [2] [%]	% change of adherence to iSRCR1 [3] [%]	% change of adherence to iSRCR123 [3] [%]	% improvement of adherence to iSRCR123 [4] [%]	% change of adherence to iSRCR1 [5] [%]	% change of adherence to iSRCR123 [5] [%]	% improvement of adherence to iSRCR123 [6] [%]	% improvement of adherence to iSRCR123 [7] [%]	% change of adherence to iSRCR1 [8] [%]	% improvement of adherence to iSRCR1 [9] [%]	% improvement of adherence to iSRCR1 [10] [%]	% improvement of adherence to iSRCR1 [11] [%]
B1	2.57e+08	3.89	0.0573	1.47e+07												
B2					3	4	5	16	2.3	7	8	91	3	97	8	13
